Measured values taken from the Human Domainome abundance scans (Beltran et al. 2025).
± gives the uncertainty stated by the source.

B1: Transcription factor SOX-4, residues 60 to 127; numbered along this chain, Q06945 (parent)
chain: KRPMNAFMVWSQIERRKIMEQSPDMHNAEISKRLGKRWKLLKDSDKIPFIREAERLRLKHMADYPDYK

Variants of: B1
Experiment: abundance fitness (aPCA) (normalised: wild type 0, dead -1); higher = more abundant; growth selection in yeast, the domain comes from the species named
Settings: Homo sapiens

Variant | abundance fitness
S31G | -0.189 ± 0.03
S31H | -0.19 ± 0.07
S31I | -0.054 ± 0.061
S31K | -0.039 ± 0.06
S31L | -0.045 ± 0.041
S31M | 0.072 ± 0.043
S31N | 0.05 ± 0.044
S31P | -0.733 ± 0.11
S31Q | -0.038 ± 0.078
S31R | -0.137 ± 0.032
S31T | 0.047 ± 0.052
S31V | -0.021 ± 0.034
K32A | -0.108 ± 0.047
K32C | -0.167 ± 0.046
K32D | -0.012 ± 0.044
K32E | 0.183 ± 0.044
K32F | -0.281 ± 0.045
K32G | -0.361 ± 0.038
K32H | -0.154 ± 0.039
K32I | -0.225 ± 0.063
K32L | -0.08 ± 0.031
K32M | 0.082 ± 0.057
K32P | -0.498 ± 0.16
K32Q | 0.066 ± 0.079

Variant | abundance fitness
K32R | -0.054 ± 0.036
K32S | -0.067 ± 0.04
K32T | -0.12 ± 0.053
K32V | -0.116 ± 0.035
K32W | -0.243 ± 0.049
K32Y | -0.062 ± 0.053
R33A | 0.121 ± 0.078
R33C | 0.083 ± 0.082
R33D | 0.483 ± 0.36
R33E | 0.316 ± 0.067
R33G | -0.283 ± 0.064
R33I | -0.051 ± 0.2
R33K | 0.048 ± 0.13
R33L | 0.192 ± 0.059
R33N | 0.126 ± 0.1
R33P | -0.922 ± 0.14
R33Q | 0.332 ± 0.077
R33S | -0.1 ± 0.07
R33T | 0.085 ± 0.097
R33V | 0.339 ± 0.074
R33W | -0.089 ± 0.066
R33Y | -0.218 ± 0.16
L34C | -0.825 ± 0.18
L34E | -0.639 ± 0.27

Variant | abundance fitness
L34F | -0.724 ± 0.18
L34G | -0.973 ± 0.14
L34H | -0.881 ± 0.12
L34I | -0.083 ± 0.17
L34M | -0.798 ± 0.18
L34P | -0.955 ± 0.2
L34Q | -0.577 ± 0.22
L34R | -0.981 ± 0.14
L34S | -0.621 ± 0.15
L34T | -0.957 ± 0.15
L34V | -0.83 ± 0.18
L34W | -0.713 ± 0.11
G35A | 0.171 ± 0.048
G35C | 0.095 ± 0.045
G35D | 0.116 ± 0.05
G35E | 0.262 ± 0.057
G35H | 0.178 ± 0.051
G35I | 0.156 ± 0.042
G35K | 0.262 ± 0.083
G35L | 0.168 ± 0.041
G35N | 0.015 ± 0.056
G35P | -0.496 ± 0.13
G35Q | 0.302 ± 0.2
G35R | 0.19 ± 0.037

Variant | abundance fitness
G35S | 0.173 ± 0.035
G35T | 0.15 ± 0.049
G35V | 0.134 ± 0.037
G35W | 0.142 ± 0.058
G35Y | 0.119 ± 0.05
K36A | -0.019 ± 0.071
K36C | -0.482 ± 0.28
K36D | -0.362 ± 0.25
K36E | 0.325 ± 0.071
K36F | -0.053 ± 0.13
K36G | -0.416 ± 0.08
K36H | -0.141 ± 0.15
K36I | 0.143 ± 0.36
K36L | -0.105 ± 0.057
K36N | 0.04 ± 0.24
K36P | -0.722 ± 0.18
K36R | -0.075 ± 0.061
K36S | -0.098 ± 0.11
K36V | 0.057 ± 0.063
R37A | 0.133 ± 0.053
R37C | -0.366 ± 0.2
R37D | -0.035 ± 0.091
R37E | 0.043 ± 0.07
R37F | -0.714 ± 0.21

Variant | abundance fitness
R37H | -0.313 ± 0.25
R37I | -0.371 ± 0.21
R37K | 0.052 ± 0.078
R37L | -0.364 ± 0.097
R37M | -0.067 ± 0.13
R37N | 0.101 ± 0.29
R37P | -0.811 ± 0.16
R37Q | -0.093 ± 0.21
R37T | -0.05 ± 0.089
R37V | -0.2 ± 0.06
W38A | -1.01 ± 0.1
W38C | -0.849 ± 0.076
W38D | -0.67 ± 0.091
W38E | -0.799 ± 0.1
W38F | -1.08 ± 0.16
W38G | -0.744 ± 0.05
W38H | -0.548 ± 0.14
W38K | -0.708 ± 0.09
W38L | -0.989 ± 0.096
W38M | -0.985 ± 0.11
W38N | -0.874 ± 0.094
W38P | -0.739 ± 0.13
W38Q | -1.02 ± 0.24
W38R | -1.16 ± 0.12

Variant | abundance fitness
W38T | -0.632 ± 0.11
W38V | -0.887 ± 0.12
W38Y | -0.548 ± 0.089
K39A | 0.093 ± 0.063
K39C | -0.329 ± 0.044
K39E | 0.057 ± 0.08
K39F | -0.481 ± 0.062
K39G | -0.098 ± 0.04
K39H | -0.506 ± 0.11
K39I | -0.384 ± 0.037
K39L | -0.244 ± 0.048
K39M | -0.144 ± 0.036
K39N | -0.19 ± 0.045
K39P | -0.783 ± 0.2
K39R | -0.187 ± 0.047
K39S | -0.027 ± 0.036
K39T | -0.216 ± 0.064
K39V | -0.306 ± 0.039
K39W | -0.758 ± 0.091
K39Y | -0.263 ± 0.076
L40C | -0.046 ± 0.043
L40D | 0.094 ± 0.058
L40F | -0.34 ± 0.069
L40G | -0.08 ± 0.041

Variant | abundance fitness
L40H | -0.153 ± 0.14
L40I | -0.468 ± 0.064
L40P | -1.29 ± 0.41
L40Q | 0.011 ± 0.071
L40R | -0.08 ± 0.041
L40S | 0.039 ± 0.042
L40T | 0.019 ± 0.065
L40V | -0.329 ± 0.046
L40Y | -0.331 ± 0.08
L41A | -0.875 ± 0.12
L41E | -0.849 ± 0.16
L41F | -0.684 ± 0.2
L41G | -0.941 ± 0.16
L41K | -0.653 ± 0.11
L41M | 0.071 ± 0.065
L41P | -0.728 ± 0.21
L41Q | -0.889 ± 0.19
L41S | -0.779 ± 0.1
L41T | -0.788 ± 0.12
L41V | -0.529 ± 0.067
L41W | -0.946 ± 0.14
L41Y | -0.807 ± 0.17
K42A | -0.066 ± 0.079
